As a reminder, the Kd is the constant that tells how readily two partners part at equilibrium.

For four sequences, Kd and binding signal (% of unplatinated plateau) results are on record in paper PMC5004165.

The target of this data set is T1, NF-kB p50 homodimer (UniProt P19838).
T1 sequence: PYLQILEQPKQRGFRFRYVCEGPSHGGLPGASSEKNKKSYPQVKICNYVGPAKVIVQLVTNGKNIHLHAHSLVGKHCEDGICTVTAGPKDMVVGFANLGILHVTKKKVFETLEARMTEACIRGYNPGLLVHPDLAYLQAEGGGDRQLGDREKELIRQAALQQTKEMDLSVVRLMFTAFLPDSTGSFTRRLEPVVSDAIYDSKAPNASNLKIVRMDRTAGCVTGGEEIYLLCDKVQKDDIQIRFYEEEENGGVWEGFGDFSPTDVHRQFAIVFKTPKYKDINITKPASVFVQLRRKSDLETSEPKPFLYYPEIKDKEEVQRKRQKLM
The experiment in a line: SPR. Conditions: EMSA: 10 mM Tris-HCl pH 7.5, 50 mM NaCl, 1 mM DTT, 1 mM EDTA, BSA (printed 10 mg/mL), 1% NP-40, 5% glycerol, poly(dI-dC), 20 C 45 min, SPR: 10 mM Tris-HCl pH 7.; for binding signal (% of unplatinated plateau): steady state. A general note: Mobility shift assays separate free from complexed probe on a gel.

The mark [1] stands for this setting: BBR3464 adducts, 1 per duplex, global.
Setting [2] is: transplatin adducts, 1 per duplex, global.

In the case of “CCTACCAAGTCTGAGGGGACTTTCCCAGGC (double strand) [DUPLEX-kB(SPR-BIO) BBR3464]”, under setting [1], the Kd came to 3.99 nM and the binding signal (% of unplatinated plateau) came out at 21.

In the case of “CCTACCAAGTCTGAGGGGACTTTCCCAGGC (double strand) [DUPLEX-kB(SPR-BIO) cisplatin]”, for the setting “cisplatin adducts, 1 per duplex, global”, the dissociation constant Kd is 2.38 nM.

Consider “CCTACCAAGTCTGAGGGGACTTTCCCAGGC (double strand) [DUPLEX-kB(SPR-BIO) transplatin]”, for which, under setting [2], the binding signal (% of unplatinated plateau) stood at 88 and the Kd was 1.99 nM.

Regarding “CCTACCAAGTCTGAGGGGACTTTCCCAGGC (double strand) [DUPLEX-kB(SPR-BIO)]”, the Kd came to 1.96 nM.
